Here are results for 1 substance from patent US20200157212A1.

For the assay, the target named is Terbium (Tb) labeled-SNAP tagged ROBO2 expressed on HEK293 cells (Homo sapiens (Human)) (UniProt Q9HCK4). Kind of assay: HTRF competition, competitor d2-SLIT2-N, ROBO2 HEK293 cells.
Terbium (Tb) labeled-SNAP tagged ROBO2 expressed on HEK293 cells (Homo sapiens (Human)), sequence (Q9HCK4 22-1378): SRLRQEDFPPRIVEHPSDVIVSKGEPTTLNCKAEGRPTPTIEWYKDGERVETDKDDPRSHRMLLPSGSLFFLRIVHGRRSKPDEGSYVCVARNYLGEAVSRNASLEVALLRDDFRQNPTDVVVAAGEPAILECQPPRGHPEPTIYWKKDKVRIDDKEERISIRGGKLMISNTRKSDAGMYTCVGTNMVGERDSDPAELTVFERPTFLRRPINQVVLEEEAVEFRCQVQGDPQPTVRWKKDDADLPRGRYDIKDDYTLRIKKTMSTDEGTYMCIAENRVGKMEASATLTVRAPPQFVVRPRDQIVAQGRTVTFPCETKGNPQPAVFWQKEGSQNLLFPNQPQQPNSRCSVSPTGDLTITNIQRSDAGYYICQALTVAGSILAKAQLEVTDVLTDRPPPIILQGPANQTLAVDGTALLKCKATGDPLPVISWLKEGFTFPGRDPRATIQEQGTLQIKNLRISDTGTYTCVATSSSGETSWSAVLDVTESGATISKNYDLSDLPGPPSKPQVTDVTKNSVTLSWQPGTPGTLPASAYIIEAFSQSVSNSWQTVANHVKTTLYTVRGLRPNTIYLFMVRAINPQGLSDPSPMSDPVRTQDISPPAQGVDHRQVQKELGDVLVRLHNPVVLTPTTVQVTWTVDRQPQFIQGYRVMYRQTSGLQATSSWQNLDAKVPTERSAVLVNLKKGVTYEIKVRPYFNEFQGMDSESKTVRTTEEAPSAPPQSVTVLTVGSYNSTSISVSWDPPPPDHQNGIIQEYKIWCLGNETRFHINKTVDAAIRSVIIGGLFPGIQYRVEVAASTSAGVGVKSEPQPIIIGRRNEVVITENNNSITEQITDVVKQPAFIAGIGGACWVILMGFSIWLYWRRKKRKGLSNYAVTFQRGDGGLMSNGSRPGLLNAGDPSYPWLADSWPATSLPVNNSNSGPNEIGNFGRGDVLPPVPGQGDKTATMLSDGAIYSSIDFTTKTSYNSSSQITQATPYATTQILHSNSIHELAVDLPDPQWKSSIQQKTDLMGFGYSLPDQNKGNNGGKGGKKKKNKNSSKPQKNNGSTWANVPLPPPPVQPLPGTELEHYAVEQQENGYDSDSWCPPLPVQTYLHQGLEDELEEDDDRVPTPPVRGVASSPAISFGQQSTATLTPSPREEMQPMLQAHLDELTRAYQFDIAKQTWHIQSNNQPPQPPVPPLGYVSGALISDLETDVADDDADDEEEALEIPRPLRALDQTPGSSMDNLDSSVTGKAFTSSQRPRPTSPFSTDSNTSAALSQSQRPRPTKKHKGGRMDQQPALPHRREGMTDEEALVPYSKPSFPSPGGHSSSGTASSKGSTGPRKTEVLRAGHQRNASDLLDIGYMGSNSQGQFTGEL

Control Ab (antibody): the IC50 (as a rule, the concentration that gives 50% inhibition) was found to be 125 nM.
